Results as given in patent US20020110800A1, “Use of SHP-1 and SHP-2 to detect compounds involved in neuronal survival” (McGill University, priority 1997, published 2002).

Legend:
Test in all cases: cell-based or functional assay
TrkA Y490/785F = TrkA Y490/785F (UniProt P04629)
TrkA Y490F = TrkA Y490F (UniProt P04629)
TrkA Y785F = TrkA Y785F (UniProt P04629)
[1] = target: wild-type TrkA, baculovirus-expressed, activated (autophosphorylated) (UniProt P04629)

Trk tyrosine dephosphorylation on co-expression in insect cells (anti-pTyr blot) (TrkA Y490/785F): 8 fold | Trk tyrosine dephosphorylation on co-expression in insect cells (anti-pTyr blot) (TrkA Y490F): 8 fold | Trk tyrosine dephosphorylation on co-expression in insect cells (anti-pTyr blot) (TrkA Y785F): 8 fold | Trk tyrosine dephosphorylation on co-expression in insect cells (anti-pTyr blot) [1]: 8 fold | dephosphorylation of Trk at Y674/Y675 (phospho-specific anti-Trk antibodies, co-expression in insect cells) [1]: 10 fold
Substance: SHP-1 (enzyme)
